According to ChEMBL document CHEMBL5346942, “Identification and analysis of small molecule inhibitors of FosB from Staphylococcus aureus” (RSC Med Chem, 2023):
Activity calls are given as the source filed them. No cut-off for these calls is given here.

Key:
[1] = target: Metallothiol transferase FosB (Staphylococcus aureus) (UniProt Q5HDM4); test: Inhibition of Staphylococcus aureus FosB using L-cysteine as substrate by absorbance based DTNB assay
C[C@H](CO)P(=O)(O)O [2] = test: (§1) Binding affinity to Staphylococcus aureus FosB using L-cysteine as substrate assessed as catalytic constant by DTNB assay based michaelis-menton analysis (reference value: 2.95 /s)
C[C@@H](C(=O)O)P(=O)(O)O [3] = test: as §1
CC[C@@H](O)P(=O)(O)O [4] = test: as §1
O=C(O)CP(=O)(O)O [5] = test: as §1
CC(C)[C@H](O)P(=O)(O)O [6] = test: as §1
C[C@H](CO)P(=O)(O)O [7] = test: (§2) Binding affinity to Staphylococcus aureus FosB using L-cysteine as substrate assessed as Kcat/Km by DTNB assay based michaelis-menton analysis (reference value: 10.33 /mM/s)
C[C@@H](C(=O)O)P(=O)(O)O [8] = test: as §2
CC[C@@H](O)P(=O)(O)O [9] = test: as §2
O=C(O)CP(=O)(O)O [10] = test: as §2
CC(C)[C@H](O)P(=O)(O)O [11] = test: as §2
C[C@H](CO)P(=O)(O)O [12] = test: (§3) Binding affinity to Staphylococcus aureus FosB using L-cysteine as substrate assessed as Km by DTNB assay based michaelis-menton analysis (reference value: 0.29 +/- 0.03 mM)
C[C@@H](C(=O)O)P(=O)(O)O [13] = test: as §3
CC[C@@H](O)P(=O)(O)O [14] = test: as §3
O=C(O)CP(=O)(O)O [15] = test: as §3
CC(C)[C@H](O)P(=O)(O)O [16] = test: as §3

Sequence of Metallothiol transferase FosB (Staphylococcus aureus), Q5HDM4 (Q5HDM4 whole entry): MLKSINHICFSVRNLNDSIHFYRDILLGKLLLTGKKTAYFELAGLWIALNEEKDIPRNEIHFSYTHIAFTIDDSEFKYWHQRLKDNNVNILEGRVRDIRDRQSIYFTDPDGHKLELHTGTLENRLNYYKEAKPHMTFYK
Sequence of Metallothiol transferase FosB (Staphylococcus aureus) (Q5HDM4 whole entry): as above

O=C(O)CCP(=O)(O)O
inhibition [1]: inactive

Metallothiol transferase FosB (Staphylococcus aureus), Q5HDM4
kcat (C[C@H](CO)P(=O)(O)O [2]): 2.91 s⁻¹
kcat (C[C@@H](C(=O)O)P(=O)(O)O [3]): 2.84 s⁻¹
kcat (CC[C@@H](O)P(=O)(O)O [4]): 2.82 s⁻¹
kcat (O=C(O)CP(=O)(O)O [5]): 2.83 s⁻¹
kcat (CC(C)[C@H](O)P(=O)(O)O [6]): 2.84 s⁻¹
kcat/Km (C[C@H](CO)P(=O)(O)O [7]): 10600 M⁻¹ s⁻¹
kcat/Km (C[C@@H](C(=O)O)P(=O)(O)O [8]): 11400 M⁻¹ s⁻¹
kcat/Km (CC[C@@H](O)P(=O)(O)O [9]): 11400 M⁻¹ s⁻¹
kcat/Km (O=C(O)CP(=O)(O)O [10]): 11800 M⁻¹ s⁻¹
kcat/Km (CC(C)[C@H](O)P(=O)(O)O [11]): 11200 M⁻¹ s⁻¹
Km (C[C@H](CO)P(=O)(O)O [12]): 270 µM
Km (C[C@@H](C(=O)O)P(=O)(O)O [13]): 250 µM
Km (CC[C@@H](O)P(=O)(O)O [14]): 250 µM
Km (O=C(O)CP(=O)(O)O [15]): 240 µM
Km (CC(C)[C@H](O)P(=O)(O)O [16]): 250 µM

O=P(O)(O)CCP(=O)(O)O
inhibition [1]: inactive

CC(C(=O)O)C(=O)O
inhibition [1]: inactive
